Values belong to the binder of their own block, whether it stands above or below them.
Tests used:
[1] = molecular target: T1, human BDCA2 protein (Kactus Biosystems, Cat# BCA-HM402) (human, UniProt Q8WTT0 45-213); assay: BLI Octet RED96, antibody captured on AHC sensor, BDCA2 50 nM in solution
T1 construct: also called Human BDCA2-His
T1 sequence: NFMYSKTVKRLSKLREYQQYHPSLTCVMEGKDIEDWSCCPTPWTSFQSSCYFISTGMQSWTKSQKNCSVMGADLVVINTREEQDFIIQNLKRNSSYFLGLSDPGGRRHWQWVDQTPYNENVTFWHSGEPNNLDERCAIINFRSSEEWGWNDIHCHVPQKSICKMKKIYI

[2] = molecular target: T2, human BAFF protein (ACRO Biosystems, Cat. No.: BAF-H52D4) (human, UniProt Q9Y275 134-285); assay: BLI Octet RED96e, protein captured on AHC sensor, BAFF 1.56-100 nM in solution
[3] = molecular target: T2, human BAFF protein (ACRO Biosystems, …); assay: BLI Octet RED96e, protein captured on AHC sensor, BAFF 100 nM in solution
[4] = molecular target: T3, human APRIL protein (ACRO Biosystems, Cat. No.: APL-H52D1) (human, UniProt O75888 115-250, limits assumed); assay: BLI Octet RED96e, protein captured on AHC sensor, APRIL 100 nM in solution
T3 sequence (looked up): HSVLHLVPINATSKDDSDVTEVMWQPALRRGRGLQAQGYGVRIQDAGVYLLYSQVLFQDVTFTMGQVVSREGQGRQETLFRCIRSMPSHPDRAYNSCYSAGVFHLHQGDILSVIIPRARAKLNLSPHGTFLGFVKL

[5] = molecular target: T3, human APRIL protein (ACRO Biosystems, …); assay: BLI Octet RED96e, protein captured on AHC sensor, APRIL 1.56-100 nM in solution
[6] = molecular target: T2, human BAFF protein (ACRO Biosystems, …); assay: BLI Octet RED96e, protein captured on AHC sensor, BAFF 1.56-100 nM in solution; remark: listed apart in the source
[7] = molecular target: T3, human APRIL protein (ACRO Biosystems, …); assay: BLI Octet RED96e, protein captured on AHC sensor, APRIL 1.56-100 nM in solution; remark: listed apart in the source
[8] = molecular target: T1, human BDCA2 protein (Kactus Biosystems, …); assay: BLI Octet RED96e, protein captured on AHC sensor, BDCA2 100 nM in solution
[9] = molecular target: T1, human BDCA2 protein (Kactus Biosystems, …); assay: BLI Octet RED96e, fusion protein captured on AHC sensor, BDCA2 1.56-100 nM in solution
[10] = molecular target: T4, human FcRn protein (ACRO Biosystems, Cat. No.: FCM-H82W4) (human, UniProt P55899 24-297; P61769 21-119); assay: BLI Octet RED96e, FcRn on SA sensor, fusion protein 3.13-200 nM; binding pH 6.0, dissociation pH 6.0
[11] = molecular target: T4, human FcRn protein (ACRO Biosystems, …); assay: BLI Octet RED96e, FcRn on SA sensor, fusion protein 3.13-200 nM; binding pH 6.0, dissociation pH 7.4
[12] = molecular target: T1, human BDCA2 protein (Kactus Biosystems, …); assay: BLI Octet RED96e, fusion protein captured on AHC sensor, BDCA2 1.56-100 nM in solution; remark: listed apart in the source
[13] = molecular target: T1, human BDCA2 protein (Kactus Biosystems, …); assay: BLI Octet RED96e, antibody captured on AHC sensor, BDCA2 100 nM in solution

- Kd [1]: 0.503 nM
- koff [1]: 6.16e-05 s⁻¹
- kon [1]: 123000 M⁻¹ s⁻¹
B1: anti-BDCA2 chimeric antibody 26H10A11-1 (antibody, human IgG1, kappa, V domains shown)
VH: DVKLVESGGGLVKPGGSLKLSCAASGFTFSSSTMSWVRQTPEKRLEWVATTGGGGSYTYNPDSVKGRFTISRDNAKNTLYLQMSSLRSEDTAMYYCTRDRYDGYYFSMDFWGQGTSVTVSS
VL: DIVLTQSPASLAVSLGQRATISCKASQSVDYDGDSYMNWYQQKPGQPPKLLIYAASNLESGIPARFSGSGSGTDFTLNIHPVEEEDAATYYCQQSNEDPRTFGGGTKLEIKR

- Kd [2]: 1.47 nM
- koff [2]: 0.000475 s⁻¹
- kon [2]: 323000 M⁻¹ s⁻¹
- Kd [3]: 1.1 nM
- Response (nm) [3]: 0.319 nm
- koff [3]: 0.000262 s⁻¹
- kon [3]: 239000 M⁻¹ s⁻¹
- Kd [4]: 2.08 nM
- Response (nm) [4]: 0.199 nm
- koff [4]: 0.00141 s⁻¹
- kon [4]: 681000 M⁻¹ s⁻¹
- Kd [5]: 2.05 nM
- koff [5]: 0.00139 s⁻¹
- kon [5]: 678000 M⁻¹ s⁻¹
- Kd [6]: 1.47 nM
- koff [6]: 0.000475 s⁻¹
- kon [6]: 323000 M⁻¹ s⁻¹
- Kd [7]: 2.05 nM
- koff [7]: 0.00139 s⁻¹
- kon [7]: 678000 M⁻¹ s⁻¹
- Response (nm) [8]: -0.0175 nm
- kon [8]: 95600 M⁻¹ s⁻¹
B2: control antibody telitacicept (Fc fusion)
chain: SRVDQEERFPQGLWTGVAMRSCPEEQYWDPLLGTCMSCKTICNHQSQRTCAAFCRSLSCRKEQGKFYDHLLRDCISCASICGQHPKQCAYFCENKLRSPVNLPPELDKTHTCPPCPAPEAEGAPSVFLFPPKPKDTLMISRTPEVTCVVVDVSHEDPEVKFNWYVDGVEVHNAKTKPREEQYNSTYRVVSVLTVLHQDWLNGKEYKCKVSNKALPSSIEKTISKAKGQPREPQVYTLPPSRDELTKNQVSLTCLVKGFYPSDIAVEWESNGQPENNYKTTPPVLDSDGSFFLYSKLTVDKSRWQQGNVFSCSVMHEALHNHYTQKSLSLSPGK
notes: TACI-Fc fusion control; also called TACI fusion protein telitacicept

- Kd [2]: < 0.001 nM
- koff [2]: < 1e-07 s⁻¹
- kon [2]: 571000 M⁻¹ s⁻¹
- Kd [3]: < 0.001 nM
- Response (nm) [3]: 0.338 nm
- koff [3]: < 1e-07 s⁻¹
- kon [3]: 407000 M⁻¹ s⁻¹
- Kd [4]: 0.246 nM
- Response (nm) [4]: 0.252 nm
- koff [4]: 0.000214 s⁻¹
- kon [4]: 873000 M⁻¹ s⁻¹
- Kd [9]: < 0.001 nM
- koff [9]: < 1e-07 s⁻¹
- kon [9]: 88800 M⁻¹ s⁻¹
- Kd [7]: 0.679 nM
- koff [7]: 0.00059 s⁻¹
- kon [7]: 868000 M⁻¹ s⁻¹
- Kd [8]: < 0.001 nM
- Response (nm) [8]: 0.481 nm
- koff [8]: < 1e-07 s⁻¹
- kon [8]: 154000 M⁻¹ s⁻¹
B3: bispecific fusion protein BI-9D2-A (bispecific antibody, human IgG1, kappa)
heavy: not shown
light: ETVLTQSPATLSLSPGERATLSCRASSSVSYMYWFQQKPGQAPRLLIYSTSNLASGIPARFSGSGSGTDYTLTISSLEPEDFAVYYCQQRRNYPHTFGGGTKVEIKRTVAAPSVFIFPPSDEQLKSGTASVVCLLNNFYPREAKVQWKVDNALQSGNSQESVTEQDSKDSTYSLSSTLTLSKADYEKHKVYACEVTHQGLSSPVTKSFNRGEC
notes: also called heavy chain 37F2C6-HuVH3-D2

- Kd [2]: 0.147 nM
- koff [2]: 7.23e-05 s⁻¹
- kon [2]: 492000 M⁻¹ s⁻¹
- Kd [10]: 20.1 nM
- koff [10]: 0.035 s⁻¹
- kon [10]: 1.74e+06 M⁻¹ s⁻¹
- Kd [3]: < 0.001 nM
- Response (nm) [3]: 0.49 nm
- koff [3]: < 1e-07 s⁻¹
- kon [3]: 438000 M⁻¹ s⁻¹
- Kd [4]: < 0.001 nM
- Response (nm) [4]: 0.397 nm
- koff [4]: < 1e-07 s⁻¹
- kon [4]: 722000 M⁻¹ s⁻¹
- Kd [9]: < 0.001 nM
- koff [9]: < 1e-07 s⁻¹
- kon [9]: 86600 M⁻¹ s⁻¹
- Kd [11]: 3140 nM
- koff [11]: 0.0842 s⁻¹
- kon [11]: 26800 M⁻¹ s⁻¹
- Kd [7]: 0.415 nM
- koff [7]: 0.000321 s⁻¹
- kon [7]: 774000 M⁻¹ s⁻¹
- Kd [8]: < 0.001 nM
- Response (nm) [8]: 0.449 nm
- koff [8]: < 1e-07 s⁻¹
- kon [8]: 112000 M⁻¹ s⁻¹
B4: bispecific fusion protein BI-9ND2-A (bispecific antibody, human IgG1, kappa)
heavy: not shown
light: B3 light
notes: also called heavy chain 37F2C6-HuVH3-3N-D2

- Kd [10]: 5.12 nM
- koff [10]: 0.0062 s⁻¹
- kon [10]: 1.21e+06 M⁻¹ s⁻¹
- Kd [5]: < 0.001 nM
- koff [5]: < 1e-07 s⁻¹
- kon [5]: 981000 M⁻¹ s⁻¹
- Kd [11]: 727 nM
- koff [11]: 0.0888 s⁻¹
- kon [11]: 122000 M⁻¹ s⁻¹
- Kd [12]: < 0.001 nM
- koff [12]: < 1e-07 s⁻¹
- kon [12]: 100000 M⁻¹ s⁻¹
- Kd [6]: 0.0384 nM
- koff [6]: 1.97e-05 s⁻¹
- kon [6]: 515000 M⁻¹ s⁻¹
B5: bispecific fusion protein having YTE mutations in the Fc region BI-9ND2-A-YTE (bispecific antibody, human IgG1, kappa)
heavy: SLSCRKEQGKFYDHLLRDCISCASICGQHPKQCAYFCENGGGGSGGGGSGGGGSQVQLVQSGAEVKKPGASVKVSCKASGYTFTDFAVHWVRQAPGQRLEWMGLIGTSSGSTNYNQKFQGRATMTVDKSANTAYMELSSLRSEDTAVYYCARNGYYVGYYALDYWGQGTTVTVSSASTKGPSVFPLAPSSKSTSGGTAALGCLVKDYFPEPVTVSWNSGALTSGVHTFPAVLQSSGLYSLSSVVTVPSSSLGTQTYICNVNHKPSNTKVDKKVEPKSCDKTHTCPPCPAPELLGGPSVFLFPPKPKDTLYITREPEVTCVVVDVSHEDPEVKFNWYVDGVEVHNAKTKPREEQYNSTYRVVSVLTVLHQDWLNGKEYKCKVSNKALPAPIEKTISKAKGQPREPQVYTLPPSRDELTKNQVSLTCLVKGFYPSDIAVEWESNGQPENNYKTTPPVLDSDGSFFLYSKLTVDKSRWQQGNVFSCSVMHEALHNHYTQKSLSLSPGK
light: B3 light
notes: also called heavy chain 37F2C6-HuVH3-ND2-YTE

- Kd [1]: < 0.001 nM
- koff [1]: < 1e-07 s⁻¹
- kon [1]: 161000 M⁻¹ s⁻¹
- Kd [13]: < 0.001 nM
- koff [13]: < 1e-07 s⁻¹
- kon [13]: 141000 M⁻¹ s⁻¹
B6: anti-BDCA2 chimeric antibody 37F2C6 (antibody, human IgG1, kappa, V domains shown)
VH: QVLLQQSGPELVRPGVSVKVSCKGSGYTFTDFAVHWVKQSQTKSLEWIGLIGTSSGSTNYNQKFKDKATMTVDKSSNTAYLELARLTSEDSAIYYCARNGYYVGYYALDYWGQGTSVTVSS
VL: QTVLTQSPAIMSASPGEKVTITCSASSSVSYMYWFQQKPGTSPKLWIYSTSNLASGVPPRFSGSGSGTSYSLTISRMEAEDAATYYCQQRRNYPHTFGGGTKLEIKR
